# Measurements: article doi:10.1101/2021.05.27.445985
# Biological target: Cy5-labeled human neutrophil peptide 1 (HNP1) (human)
# Test: fluorescence polarisation
substance,measurement,value
Recombinant SARS-CoV-2 Spike glycoprotein (from UniProt P0DTC2) (natural protein),Kd,0.146 µM
